Experiments:
[1] = biological target: T1, CD16A endogenously expressed on primary human NK cells (human, UniProt P08637 17-254); test: flow cytometry on primary human NK cells at 37 °C, biotinylated antibody, streptavidin-FITC, without polyclonal human IgG
Procedure: Frozen NK cells were thawed, and viability was determined with trypan blue (Sigma-Aldrich, cat.: T8154). Cells have been centrifuged at 400×g, 5 min, 4° C. Cell pellets were resuspended in FACS buffer PBS (Invitrogen, cat.: 392-0434) containing 2% h.i. FCS (Invitrogen, cat.: 10500-064), and 0.1% sodium azide (Sigma, cat.: S8032) at 2×10⁶ cells/mL. 100 μL/well of the cell suspension were transferred into U-shaped 96 well plates, cells were pelleted at 400×g, 5 min. 4° C., and resuspended in 50 μL/well of diluted antibody constructs. […] After 40-50 minutes' incubation at 37° C., cells were washed 3-times with ice-cold FACS buffer. […] After the final incubation step, cells were washed 2-times with ice-cold FACS buffer, and the cell pellet was resuspended in 50 μL FACS buffer. Fluorescence intensity of >1×10⁴ viable cells was analyzed by flow cytometry and the median fluorescence intensity (MFI) was determined for each sample.

[2] = biological target: T1, CD16A endogenously expressed on primary …; test: flow cytometry on primary human NK cells, with against without 10 mg/mL polyclonal human IgG
Procedure: (§1) 4° C., and resuspended in 50 μL/well of diluted antibody constructs. […] After 40-50 minutes' incubation at 37° C., cells were washed 3-times with ice-cold FACS buffer. […] After the final incubation step, cells were washed 2-times with ice-cold FACS buffer, and the cell pellet was resuspended in 50 μL FACS buffer. Fluorescence intensity of >1×10⁴ viable cells was analyzed by flow cytometry and the median fluorescence intensity (MFI) was determined for each sample.
(§2) Equilibrium dissociation constants (KD) of antibody binding were calculated by plotting MFI values and fitting a non-linear regression model for one-site binding to hyperbolic dose-response curves using GraphPad Prism.

[3] = biological target: T1, CD16A endogenously expressed on primary …; test: flow cytometry on primary human NK cells, without IgG, range of 4 experiments
Procedure: as §1, §2

[4] = biological target: T1, CD16A endogenously expressed on primary …; test: flow cytometry on primary human NK cells, with 10 mg/mL polyclonal human IgG as competitor, range of 4 experiments
Procedure: as §1, §2

[5] = biological target: T2, human FOLR1 endogenously expressed on tumor cell lines (human, UniProt P15328 25-234); test: flow cytometry on IGROV-1 cells (FOLR1 high) at 37 °C, FITC anti-human IgG detection
T2 construct: whole, on cells; also called FOLR1-positive tumor cell lines; FOLR1+ target cells
T2 sequence (P15328 25-234): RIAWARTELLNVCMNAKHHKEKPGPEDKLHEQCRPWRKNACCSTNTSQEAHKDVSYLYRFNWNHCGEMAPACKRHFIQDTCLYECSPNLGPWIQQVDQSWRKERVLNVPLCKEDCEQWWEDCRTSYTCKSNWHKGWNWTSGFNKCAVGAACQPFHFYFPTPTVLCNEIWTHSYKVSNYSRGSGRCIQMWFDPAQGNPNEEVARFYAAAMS
Procedure, shortened: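 Cells in PBS with 2% h.i. FCS and 0.1% sodium azide, 0.1-0.5×10⁶ per well, were incubated 40-50 min with serial antibody dilutions, then washed with ice-cold buffer. Median fluorescence intensity of >1×10⁴ viable cells was determined by flow cytometry.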

[6] = biological target: T2, human FOLR1 endogenously expressed on …; test: flow cytometry on OVCAR-3 cells (FOLR1 medium) at 37 °C, FITC anti-human IgG detection
Procedure: (§3) Cells were collected and centrifuged at 400×g, 5 min, 4° C. Cell pellets were resuspended in FACS buffer (PBS (Invitrogen, cat.: 392-0434) containing 2% h.i. FCS (Invitrogen, cat.: 10500-064), and 0.1% sodium azide (Sigma, cat.: S8032)) at 1-5×10⁶ cells/mL. 100 μL/well of the cell suspension were transferred into U-shaped, 96-well micro plates (0.1-0.5×10⁶ cells per well), cells were pelleted at 400×g, 5 min, 4° C., and resuspended in 100 μL/well of serial dilutions of the indicated antibodies in FACS buffer. After 40-50 min incubation at 37° C., cells were washed 3-times with ice-cold FACS buffer. […] After the final incubation step, cells were washed 2-times with ice-cold FACS buffer, and the cell pellet was resuspended in 100 μL FACS buffer. Fluorescence intensities of >1×10⁴ viable cells were analyzed by flow cytometry and the median fluorescence intensity (MFI) was determined for each sample.

[7] = biological target: T2, human FOLR1 endogenously expressed on …; test: flow cytometry on IGROV-1 cells, 37 C, one-site fit of MFI, mean
Procedure: as §3
(§4) Equilibrium dissociation constants (KD) of antibody binding, mean and standard deviation (SD) were calculated by plotting MFI values and fitting a non-linear regression model for one-site binding to hyperbolic dose-response curves using GraphPad Prism for Windows (v9; GraphPad Software; La Jolla California USA).
(§5) Specific antibody binding capacity (SABC) as a marker for FOLR1 expression level on cells was determined on all tumor cell lines using QIFIKIT.

[8] = biological target: T2, human FOLR1 endogenously expressed on …; test: cell-based or functional assay
[9] = biological target: T2, human FOLR1 endogenously expressed on …; test: cell-based or functional assay; remark: listed apart in the source
[10] = biological target: T1, CD16A endogenously expressed on primary …; test: flow cytometry on primary human NK cells, biotinylated antibody, 37 C, with 10 mg/mL polyclonal human IgG as competitor, mean of 4
Procedure: as §1, §2

[11] = biological target: T2, human FOLR1 endogenously expressed on …; test: flow cytometry on NCI-H2110 cells, 37 C, one-site fit of MFI, mean
Procedure: as §3, §4, §5

[12] = biological target: T2, human FOLR1 endogenously expressed on …; test: flow cytometry on HCC-827 cells, 37 C, one-site fit of MFI, mean
Procedure: as §3, §4, §5

[13] = biological target: T2, human FOLR1 endogenously expressed on …; test: flow cytometry on OVCAR-3 cells, 37 C, one-site fit of MFI, mean
Procedure: as §3, §4, §5

[14] = biological target: T1, CD16A endogenously expressed on primary …; test: flow cytometry on primary human NK cells, biotinylated antibody, 37 C, without IgG, mean of 4
Procedure: as §1, §2

T1 sequence (P08637 17-254 limits assumed): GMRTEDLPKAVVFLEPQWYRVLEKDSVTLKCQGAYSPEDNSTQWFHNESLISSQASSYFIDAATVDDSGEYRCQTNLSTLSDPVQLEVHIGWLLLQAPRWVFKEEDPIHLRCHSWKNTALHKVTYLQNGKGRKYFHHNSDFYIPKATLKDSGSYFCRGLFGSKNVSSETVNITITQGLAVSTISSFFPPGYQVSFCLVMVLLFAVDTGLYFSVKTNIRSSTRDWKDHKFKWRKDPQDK

EC50 (read off the curve) [1]: ~4 nM | fold loss in KD induced by IgG [2]: 5.3 fold | Kd [3]: 3.7 to 5.4 nM | Kd [4]: 14.3 to 36.4 nM | EC50 (read off the curve) [5]: ~3 nM | EC50 (read off the curve) [6]: ~2 nM | Kd [7]: 3.7 nM | EC50 [nM] of ADCP, DK-MG cells [8]: 0.1 nM | EC50 [nM] of ADCP, HCC-78 cells [8]: 17.8 nM | EC50 [nM] of ADCP, HeLa cells [8]: 0.16 nM | Phagocytosis [%], 4 h ADCP, DK-MG cells [8]: 17.6% | Phagocytosis [%], 4 h ADCP, HCC-78 cells [8]: 26% | EC50 of ADCC, 4 h calcein release, NK cells, HCC-827 cells [9]: 6 pM | EC50 of ADCC, 4 h calcein release, NK cells, OVCAR-3 cells [9]: 0.8 pM | Kd [10]: 23.1 nM | Kd [11]: 2.5 nM | Kd [12]: 2.7 nM | Kd [13]: 1.7 nM | Kd [14]: 4.3 nM
B1: scFv-IgAb_387 (FOLR1_1×CD16a3) (bispecific antibody)
heavy: EVQLVESGGGVVQPGRSLRLSCSASGFTFSGYGLSWVRQAPGKGLEWVAMISSGGSYTYYADSVKGRFAISRDNAKNTLFLQMDSLRPEDTGVYFCARHGDDPAWFAYWGQGTPVTVSSASTKGPSVFPLAPSSKSTSGGTAALGCLVKDYFPEPVTVSWNSGALTSGVHTFPAVLQSSGLYSLSSVVTVPSSSLGTQTYICNVNHKPSNTKVDKKVEPKSCDKTHTCPPCPAPEFEGGPSVFLFPPKPKDTLMISRTPEVTCVVVAVSHEDPEVKFNWYVDGVEVHNAKTKPREEQYNSTYRVVSVLTVLHQDWLNGKEYKCKVSNKALPAPIEKTISKAKGQPREPQVYTLPPSREEMTKNQVSLTCLVKGFYPSDIAVEWESNGQPENNYKTTPPVLDSDGSFFLYSKLTVDKSRWQQGNVFSCSVMHEALHNHYTQKSLSLSPGGGGGSGGGGSGGGGSGGGGSGGGGSGGGGSSYELTQPLSVSVALGQTARITCGGNNIGSKSVHWYQQKPGQAPVLVIYQDKKRPSGIPERFSGSNSGNTATLTISRAQAGDEADYYCQVWDDYIVLFGCGTKLTVLGGSGGSGGSGGSGGSGGSGGSQVQLVQSGAEVKKPGASVKVSCKASGYTFTNYYMQWVRQAPGQCLEWMGIINPSGGVTSYAQKFQGRVTMTRDTSTSTVYMELSSLRSEDTAVYYCARGSAYYYDFADYWGQGTLVTVSSG
light: DIQLTQSPSSLSASVGDRVTITCSVSSSISSNNLHWYQQKPGKAPKPWIYGTSNLASGVPSRFSGSGSGTDYTFTISSLQPEDIATYYCQQWSSYPYMYTFGQGTKVEIKRTVAAPSVFIFPPSDEQLKSGTASVVCLLNNFYPREAKVQWKVDNALQSGNSQESVTEQDSKDSTYSLSSTLTLSKADYEKHKVYACEVTHQGLSSPVTKSFNRGEC
modifications: Chemically biotinylated (NHS-PEG4-biotin) in Example 22 only.
notes: Tetravalent bispecific scFv-IgAb; also called FOLR1×CD16A scFv-IgAb_387; FOLR1/CD16A scFv-IgAb_387; copies: 2 + 2
